Assay results published in the supplement of paper PMC10126150.
± gives the standard deviation of the averaged measurements.

System: ATP
Test: switch fluorescence ratio, 500 uM ATP over buffer (Cy3 cluster intensity, sum of 5 cycles each) (fold (ratio)); higher = stronger signal-on switching upon ATP binding; sequences stand for … in TCGTCGGCAGCGTCAGATGTGTATAAGAGACAGTTTTTTTTTTTTTTTTTTTTTTTTT…TC
Details: aptamer strand: ATP DNA aptamer (quencher-CACCTGGGGGAGTATTGCGGAGGAAGG + anchor), 100 nM annealed; ATP concentration: 500 uM
Procedure, shortened: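 Clusters with intensities outside 100-1000 RFU were excluded. The remaining Cy3-labelled switching-strand clusters on a modified Illumina MiSeq flow-cell had been annealed to 100 nM quencher-labelled ATP aptamer and imaged in selection buffer, then after 15 min with 500 uM ATP at 22 °C, for five cycles separated by NaOH stripping and re-annealing. The fluorescence ratio, averaged per switch-domain sequence, is each cluster's summed target-cycle Cy3 intensity over its summed buffer-cycle Cy3 intensity.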
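Also: ATP exposure 15 min at 22 °C before imaging.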

| Sequence | switch fluorescence ratio |
| --- | --- |
| AAGAAGGTCC | 1.01 ± 0.019 |
| CGACAATCAT | 1.039 ± 0.0036 |
| ATTTGGCGCG | 0.964 ± 0.024 |
| CCATGAAAAT | 1.029 ± 0.003 |
| GGGTCATTAA | 0.9905 ± 0.0088 |
| GGTTCCTATG | 0.9909 ± 0.0079 |
| GGGTCGGGGG | 0.994 ± 0.04 |
| ATACAGGGTG | 1.24 ± 0.019 |
| ATCTGCAACA | 1.62 ± 0.042 |
| ACTCAGACCT | 1.3 ± 0.067 |
| TCAGGGCGAA | 0.995 ± 0.016 |
| TAAAGACGGG | 0.978 ± 0.013 |
| GGGTTAGGAT | 0.98 ± 0.029 |
| GCGTCCGCGG | 1.26 ± 0.041 |
| CTGTGCGCCC | 1.09 ± 0.058 |
| GCGATTAAAT | 1.018 ± 0.0019 |
| GAATAATGGG | 1.01 ± 0.033 |
| AGTGAGAATT | 1.013 ± 0.01 |
| GCAGGCCTGA | 1.01 ± 0.029 |
| TTTAAGAGTA | 1 ± 0.067 |
| GATTGAGAGT | 1.019 ± 0.0087 |
| TAGTCGCTCC | 1.03 ± 0.034 |
| AGGTTGTATC | 1.01 ± 0.028 |
| GACTCAAGTT | 1.048 ± 0.0054 |
| GAGGAAATGG | 1.024 ± 0.0046 |
| GGGCAGTTCG | 1.02 ± 0.027 |

| Sequence | switch fluorescence ratio |
| --- | --- |
| TTGGTGAAGG | 1.01 ± 0.023 |
| TGTTTTAACT | 1.01 ± 0.017 |
| GGCATTTGGA | 0.98 ± 0.035 |
| ATTCTTCTTA | 1.028 ± 0.0033 |
| TTGCTATGTT | 1.01 ± 0.037 |
| GTTTTGAGGG | 1.01 ± 0.016 |
| TGGGTGCATT | 1.014 ± 0.0044 |
| CGAGGAAGGG | 1.01 ± 0.021 |
| AAGGGCTTAC | 1.135 ± 0.0058 |
| GGATTACGTA | 1.04 ± 0.059 |
| TTAGGGATAC | 1.88 ± 0.88 |
| CACAGCTCAC | 1.79 ± 0.065 |
| GGATGAGCGA | 1.18 ± 0.19 |
| AGTTCAGTAT | 0.983 ± 0.019 |
| TTATGTATGC | 0.95 ± 0.08 |
| CAGATTTCTA | 1.02 ± 0.019 |
| TTACAGGGTA | 0.981 ± 0.025 |
| TGGGAGAGGA | 1.02 ± 0.049 |
| GAAAAAAAAG | 1.07 ± 0.1 |
| ATGTATTTTC | 0.986 ± 0.041 |
| GGTGGAGGGA | 0.987 ± 0.031 |
| GTCGGAAGGG | 1.01 ± 0.032 |
| CCGTTTGTGC | 1.21 ± 0.063 |
| AGTATTGTTT | 1.01 ± 0.02 |
| GGCGGGGGCG | 1.07 ± 0.024 |
| CATAGATGGG | 1.01 ± 0.015 |

| Sequence | switch fluorescence ratio |
| --- | --- |
| AGTCAGGGTC | 0.99 ± 0.032 |
| TGACGGGTTT | 1.06 ± 0.12 |
| TTGTATGTTT | 0.98 ± 0.023 |
| GTGACGGGGT | 1.01 ± 0.022 |
| TGATTGGGGA | 1.005 ± 0.0043 |
| TCTGAAATTT | 0.9727 ± 0.0067 |
| CTAGTTAAGG | 1.011 ± 0.0048 |
| GGGGCTAGTT | 0.963 ± 0.02 |
| GTGGTATTTT | 0.999 ± 0.035 |
| TAGTTGTTCC | 1.07 ± 0.07 |
| TTTTTTACAT | 1.01 ± 0.018 |
| CTTGGGGGGT | 0.97564 ± 0.00052 |
| AATTGGGTGC | 1.09 ± 0.12 |
| TGAGGACCCT | 1.02 ± 0.025 |
| CCAGTTTGTG | 1.018 ± 0.0037 |
| ATCGCTATGT | 1.05 ± 0.043 |
| AAATAGGGGT | 1 ± 0.039 |
| GGTGGGAGGG | 1.008 ± 0.0073 |
| TCCGATGGGT | 1.145 ± 0.0095 |
| CCGTTACCTG | 0.974 ± 0.015 |
| ATTAGTTAGC | 1.01 ± 0.05 |
| TTAATCAGAT | 0.9533 ± 0.0093 |
| TTGATCGTGC | 1.12 ± 0.18 |
| GATATAGTGC | 1.01 ± 0.05 |
| ACATAGGTGA | 1.1 ± 0.069 |
| AGTTATAAGT | 0.979 ± 0.01 |

| Sequence | switch fluorescence ratio |
| --- | --- |
| CGGGGAGGAA | 1.01 ± 0.072 |
| CTAGTTTTTA | 1.009 ± 0.007 |
| AGATTAGGAC | 0.97145 ± 0.00024 |
| GGGAGCGCTT | 1.03 ± 0.012 |
| TATGGGGTGT | 1.01 ± 0.033 |
| AGTTTGCGGG | 1.006 ± 0.0094 |
| CGGGTATTTA | 1.01 ± 0.025 |
| AAGTGCTACC | 1.02 ± 0.06 |
| TTATGTTCAG | 1.04 ± 0.034 |
| CCGGAGGTCG | 0.958 ± 0.012 |
| TTAGTGGAAT | 0.9552 ± 0.0073 |
| AATGATTGGA | 1.02 ± 0.041 |
| TTCCCCAGGG | 3.63 ± 1.6 |
| TGCTTTTCCG | 1.1 ± 0.07 |
| CAGAGTGCTG | 1.06 ± 0.03 |
| CCATATAGGC | 1.03 ± 0.065 |
| AACTTTAGTT | 1.02 ± 0.027 |
| CATGTGGCGG | 0.995 ± 0.0016 |
| TTTTAGGTTA | 0.986 ± 0.027 |
| TTTGGAGCTT | 4.01 ± 2.7 |
| GGGTGGGGAA | 0.963 ± 0.075 |
| GCAAAACGTA | 1.012 ± 0.009 |
| ATGCCTCGGG | 1.02 ± 0.032 |
| CGGAAAGGGT | 1.01 ± 0.027 |
| CGGTGGGGGC | 0.9806 ± 0.0057 |
| ACTCACATAG | 1.217 ± 0.0056 |

| Sequence | switch fluorescence ratio |
| --- | --- |
| GGTTTCATGG | 0.998 ± 0.012 |
| TTCTTGCTAC | 1.78 ± 0.036 |
| AAAGAGAGAC | 1.0086 ± 0.00021 |
| GTAAGTTGGT | 1 ± 0.021 |
| TGGCGAGTCC | 0.973 ± 0.015 |
| ATCAGAGGTG | 1.14 ± 0.0059 |
| GAAATCGGGG | 1.05 ± 0.15 |
| TGGGAGTGGT | 1 ± 0.003 |
| TCACAGTTGC | 0.99 ± 0.12 |
| GAGAGGGGGA | 0.97 ± 0.036 |
| TTTCATTAGT | 0.99 ± 0.045 |
| GCTAGCGTTC | 1 ± 0.013 |
| GGTATGTTGG | 0.996 ± 0.011 |
| GGTCGGTGCG | 0.9914 ± 0.0098 |
| TGTCGTCGGG | 0.995 ± 0.026 |
| GTAGGACTGC | 1.01 ± 0.021 |
| CGGGTGGGTG | 1.01 ± 0.013 |
| CGGCTTTTTT | 0.959 ± 0.012 |
| GGGGTTACGC | 1.03 ± 0.059 |
| GCAGTGAGGG | 0.991 ± 0.028 |
| GATCTTAACA | 1.003 ± 0.0089 |
| TTTTGTGAAA | 0.997 ± 0.036 |
| AACGCGTCTG | 1.012 ± 0.0037 |
| GTTAGTGTTG | 0.978 ± 0.01 |
| GTAAGTTTTT | 0.984 ± 0.02 |
| CGGGGTTGCT | 1.03 ± 0.054 |

| Sequence | switch fluorescence ratio |
| --- | --- |
| AAGATCCTTT | 0.986 ± 0.025 |
| AATAGAGTTA | 1.02 ± 0.023 |
| TGAACTAAAT | 1.01 ± 0.024 |
| TGGGGGTGGT | 1 ± 0.028 |
| GGGAGATTAA | 0.975 ± 0.013 |
| CTAGGTTGCA | 0.9871 ± 0.0052 |
| GTATGAGGGA | 0.993 ± 0.018 |
| GGTGTTGTTG | 1.017 ± 0.0023 |
| TAACCCGATT | 0.997 ± 0.029 |
| TCGGGTGTTG | 1.03 ± 0.048 |
| AGGGGGTACA | 1.01 ± 0.016 |
| CTCAGGTATC | 1.11 ± 0.012 |
| GGCTGGTAGA | 1 ± 0.02 |
| ATCTTTATAT | 0.994 ± 0.019 |
| AGGCGCCTGG | 0.964 ± 0.04 |
| TAATCCATCG | 1.03 ± 0.049 |
| CTATCCATGG | 0.993 ± 0.017 |
| ATACAAAA | 1.02 ± 0.048 |
| CGGGGCATGG | 1 ± 0.039 |
| TTTGCCCCGG | 1.12 ± 0.12 |
| CGATCTTGTT | 0.982 ± 0.018 |
| TGGGATACAG | 0.982 ± 0.026 |
| CGGTTTTAAG | 1.02 ± 0.018 |
